T1: human GIP receptor (human) (UniProt P48546)
T1 sequence (looked up): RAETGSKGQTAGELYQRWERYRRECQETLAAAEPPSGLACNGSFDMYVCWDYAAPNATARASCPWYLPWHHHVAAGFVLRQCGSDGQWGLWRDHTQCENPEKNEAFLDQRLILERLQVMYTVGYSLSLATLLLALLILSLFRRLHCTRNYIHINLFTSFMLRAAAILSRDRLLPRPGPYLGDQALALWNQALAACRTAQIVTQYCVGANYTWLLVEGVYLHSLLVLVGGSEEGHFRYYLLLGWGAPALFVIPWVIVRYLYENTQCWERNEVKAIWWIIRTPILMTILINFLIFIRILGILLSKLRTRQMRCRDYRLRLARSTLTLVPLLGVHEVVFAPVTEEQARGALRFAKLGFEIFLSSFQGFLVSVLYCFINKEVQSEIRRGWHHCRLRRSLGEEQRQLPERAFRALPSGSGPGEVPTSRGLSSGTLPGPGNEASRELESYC


Columns and labels:
Assay in all cases: cell-based or functional assay
[1] = target: hGLP-1R (Homo sapiens, UniProt P43220)
[2] = target: T1, human GIP receptor (human)
[3] = target: human glucagon receptor (human) (UniProt P47871)
human glucagon receptor (human), sequence (P47871 26-477): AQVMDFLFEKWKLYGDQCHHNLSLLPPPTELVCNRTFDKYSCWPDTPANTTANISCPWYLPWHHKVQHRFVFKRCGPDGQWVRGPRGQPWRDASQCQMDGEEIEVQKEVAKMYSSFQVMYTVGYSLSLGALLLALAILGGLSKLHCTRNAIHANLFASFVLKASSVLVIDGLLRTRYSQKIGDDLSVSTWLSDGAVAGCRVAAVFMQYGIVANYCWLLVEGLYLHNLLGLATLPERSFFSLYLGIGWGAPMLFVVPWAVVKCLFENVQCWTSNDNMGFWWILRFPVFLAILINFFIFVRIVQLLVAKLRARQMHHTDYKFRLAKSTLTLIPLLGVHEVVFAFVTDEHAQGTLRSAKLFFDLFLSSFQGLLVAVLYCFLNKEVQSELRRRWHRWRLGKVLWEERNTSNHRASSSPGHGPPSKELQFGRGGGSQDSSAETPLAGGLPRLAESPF

hGLP-1R, sequence (P43220 24-463): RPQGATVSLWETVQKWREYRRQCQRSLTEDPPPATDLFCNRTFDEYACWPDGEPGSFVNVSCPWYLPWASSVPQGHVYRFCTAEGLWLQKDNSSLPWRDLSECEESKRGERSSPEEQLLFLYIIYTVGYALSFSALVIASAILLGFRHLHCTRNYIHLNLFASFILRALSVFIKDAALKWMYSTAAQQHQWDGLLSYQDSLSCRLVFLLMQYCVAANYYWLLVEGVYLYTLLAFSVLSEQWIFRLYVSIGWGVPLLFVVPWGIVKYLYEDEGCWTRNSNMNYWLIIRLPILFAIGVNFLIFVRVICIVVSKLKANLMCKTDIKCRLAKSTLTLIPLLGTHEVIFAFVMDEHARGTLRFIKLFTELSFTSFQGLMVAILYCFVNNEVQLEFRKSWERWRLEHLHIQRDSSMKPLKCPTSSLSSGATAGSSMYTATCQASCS

Row | Binder | Relative cAMP EC50 [1] | cAMP Rel EC50 (in the presence of 1% HSA) [1] | Relative cAMP EC50 [2] | cAMP Rel EC50 (in the presence of 1% HSA) [2] | Relative cAMP EC50 [3] | cAMP Rel EC50 (in the presence of 1% HSA) [3]
1 | YXQGTXTSDXXIXLDXKAQXEFIEXLVEGGPSSGAPPPSGSE (Lys acylated (γGlu)2-C18 diacid; non-natural residues; C-amide; synthetic construct; SITE 2: note = 2-Aminoisobutyric Acid; SITE 6: note = alpha-methyl-2-fluoro-L-phenylalanine; SITE 10: note = 3-(4-Pyridyl)-L-alanine; SITE 11: note = alpha-methyl-L-serine; SITE 13: note = alpha-methyl-leucine; SITE 16: note = L-ornithine; SITE 17: note = Lysine is chemically mo) [Example 1162] | 0.372 nM | 34.5 nM | 0.00818 nM | 0.656 nM | 2.55 nM | 199 nM
2 | YXQGTXTSDXXIXLDXKAQXEFIEXLIEGGPSSGEPPPSGSE (Aib, αMeF, 4Pal, αMeS, αMeL, Orn, Me4Pal, αMeY, acyl, amide; synthetic construct; SITE 2: note = 2-Aminoisobutyric Acid; SITE 6: note = alpha-methyl-L-phenylalanine; SITE 10: note = 3-(4-Pyridyl)-L-alanine; SITE 11: note = alpha-methyl-L-serine; SITE 13: note = alpha-methyl-leucine; SITE 16: note = L-ornithine; SITE 17: note = Lysine is chemically modified th) [Example 1167] | 0.636 nM | 89.2 nM | 0.011 nM | 1.22 nM | 2.16 nM | 274 nM
3 | YXQGTXTSDXXIXLDXKAQXEFIEXLIEGGPSSGAPPPSGSE (Aib, alpha-methyl residues, 4Pal, Orn, lipidated Lys, amide; synthetic construct; SITE 2: note = 2-Aminoisobutyric Acid; SITE 6: note = alpha-methyl-L-phenylalanine; SITE 10: note = 3-(4-Pyridyl)-L-alanine; SITE 11: note = alpha-methyl-L-serine; SITE 13: note = alpha-methyl-leucine; SITE 16: note = L-ornithine; SITE 17: note = Lysine is chemically modified th) [Example 1166] | 0.478 nM | 65.6 nM | 0.00999 nM | 1.1 nM | 2.94 nM | 427 nM
4 | YXQGTXTSDXXIXLDXKAQXEFIEXLVEGGPSSGEPPPSGSE (non-natural residues; lipidated Lys; C-terminal amide; synthetic construct; SITE 2: note = 2-Aminoisobutyric Acid; SITE 6: note = alpha-methyl-2-fluoro-L-phenylalanine; SITE 10: note = 3-(4-Pyridyl)-L-alanine; SITE 11: note = alpha-methyl-L-serine; SITE 13: note = alpha-methyl-leucine; SITE 16: note = L-ornithine; SITE 17: note = Lysine is chemically mo) [Example 1163] | 0.449 nM | 35.4 nM | 0.00951 nM | 0.721 nM | 1.75 nM | 163 nM
5 | YXQGTXTSDXXIXLDXKAQXEFIEXLIEGGPSSGAPPPSGGGE (non-natural residues, acylated Lys (AEEA-γGlu-C18 diacid), C-terminal amide; synthetic construct; SITE 2: note = 2-Aminoisobutyric Acid; SITE 6: note = alpha-methyl-L-phenylalanine; SITE 10: note = 3-(4-Pyridyl)-L-alanine; SITE 11: note = alpha-methyl-L-serine; SITE 13: note = alpha-methyl-leucine; SITE 16: note = L-ornithine; SITE 17: note = Lysine is chemically modified th) [Example 1168] | 0.422 nM | 65.4 nM | 0.00839 nM | 0.999 nM | 2.63 nM | 364 nM
6 | YXQGTXTSDXXIXLDXKAQXEFIEXLVEGGPSSGEPPPTGE (not fully specified; Aib, αMeF(2F), 4Pal, αMeS, αMeL, Orn, Me4Pal, αMeY, acyl, amide; synthetic construct; SITE 2: note = 2-Aminoisobutyric Acid; SITE 6: note = alpha-methyl-2-fluoro-L-phenylalanine; SITE 10: note = 3-(4-Pyridyl)-L-alanine; SITE 11: note = alpha-methyl-L-serine; SITE 13: note = alpha-methyl-leucine; SITE 16: note = L-ornithine; SITE 17: note = Lysine is chemically mo) [Example 1153] | 0.33 nM | 52.7 nM | 0.0109 nM | 1.39 nM | 2.69 nM | 215 nM
7 | YXQGTXTSDXXIXLDXKAQXEFIEXLVEGGPSSGAPPPSGE (non-natural residues; lipidated Lys; C-terminal amide; synthetic construct; SITE 2: note = 2-Aminoisobutyric Acid; SITE 6: note = alpha-methyl-2-fluoro-L-phenylalanine; SITE 10: note = 3-(4-Pyridyl)-L-alanine; SITE 11: note = alpha-methyl-L-serine; SITE 13: note = alpha-methyl-leucine; SITE 16: note = L-ornithine; SITE 17: note = Lysine is chemically mo) [Example 1160] | 0.365 nM | 31.2 nM | 0.00773 nM | 0.598 nM | 2.41 nM | 183 nM
8 | YXQGTXTSDXXIXLDXKAQXEFIEXLIEGGPSSGEPPPSGE (non-natural residues; lipidated Lys; C-terminal amide; synthetic construct; SITE 2: note = 2-Aminoisobutyric Acid; SITE 6: note = alpha-methyl-L-phenylalanine; SITE 10: note = 3-(4-Pyridyl)-L-alanine; SITE 11: note = alpha-methyl-L-serine; SITE 13: note = alpha-methyl-leucine; SITE 16: note = L-ornithine; SITE 17: note = Lysine is chemically modified th) [Example 1165] | 0.632 nM | 87.7 nM | 0.0121 nM | 1.36 nM | 2.68 nM | 358 nM
9 | YXQGTXTSDXXIXLDXKAQXEFIEXLVEGGPSSGAPPPEGE (not fully specified; non-natural residues; AEEA-γGlu-C18 diacid acyl; C-terminal amide; synthetic construct; SITE 2: note = 2-Aminoisobutyric Acid; SITE 6: note = alpha-methyl-2-fluoro-L-phenylalanine …; SITE 10: note = 3-(4-Pyridyl)-L-alanine; SITE 11: note = alpha-methyl-L-serine; SITE 13: note = alpha-methyl-leucine; SITE 16: note = L-ornithine; SITE 17: note = Lysine is chemically mo) [Example 1158] | 0.419 nM | 46.8 nM | 0.0126 nM | 1.42 nM | 2.19 nM | 301 nM
10 | YXQGTXTSDXXIXLDXKAQXEFIEXLVEGGPSSGEPPPGGE (not fully specified; Aib, αMeF(2F), 4Pal, Me4Pal, Orn; lipidated Lys; C-terminal amide; synthetic construct; SITE 2: note = 2-Aminoisobutyric Acid; SITE 6: note = alpha-methyl-2-fluoro-L-phenylalanine …; SITE 10: note = 3-(4-Pyridyl)-L-alanine; SITE 11: note = alpha-methyl-L-serine; SITE 13: note = alpha-methyl-leucine; SITE 16: note = L-ornithine; SITE 17: note = Lysine is chemically mo) [Example 1155] | 0.434 nM | 44.4 nM | 0.00917 nM | 0.888 nM | 1.83 nM | 288 nM
11 | YXQGTXTSDXXIXLDXKAQXEFIEXLVEGGPSSGAPPPESE (not fully specified; non-natural residues; lipidated Lys; C-terminal amide; synthetic construct; SITE 2: note = 2-Aminoisobutyric Acid; SITE 6: note = alpha-methyl-2-fluoro-L-phenylalanine; SITE 10: note = 3-(4-Pyridyl)-L-alanine; SITE 11: note = alpha-methyl-L-serine; SITE 13: note = alpha-methyl-leucine; SITE 16: note = L-ornithine; SITE 17: note = Lysine is chemically mo) [Example 1156] | 0.444 nM | 47.1 nM | 0.0127 nM | 1.33 nM | 2.94 nM | 337 nM
12 | YXQGTXTSDXXIXLDXKAQXEFIEXLVEGGPSSGEPPPESE (not fully specified; non-natural residues; AEEA-γGlu-diacid acylated Lys; C-terminal amide; synthetic construct; SITE 2: note = 2-Aminoisobutyric Acid; SITE 6: note = alpha-methyl-2-fluoro-L-phenylalanine; SITE 10: note = 3-(4-Pyridyl)-L-alanine; SITE 11: note = alpha-methyl-L-serine; SITE 13: note = alpha-methyl-leucine; SITE 16: note = L-ornithine; SITE 17: note = Lysine is chemically mo) [Example 1157] | 0.408 nM | 57.5 nM | 0.0124 nM | 1.28 nM | 2.04 nM | 384 nM
13 | YXQGTXTSDXXIXLDXKAQXEFIEXLVEGGPSSGEPPPEGE (not fully specified; non-natural residues; AEEA-γGlu-C18 diacid on Lys; C-terminal amide; synthetic construct; SITE 2: note = 2-Aminoisobutyric Acid; SITE 6: note = alpha-methyl-2-fluoro-L-phenylalanine; SITE 10: note = 3-(4-Pyridyl)-L-alanine; SITE 11: note = alpha-methyl-L-serine; SITE 13: note = alpha-methyl-leucine; SITE 16: note = L-ornithine; SITE 17: note = Lysine is chemically mo) [Example 1159] | 0.45 nM | 64.1 nM | 0.0118 nM | 1.29 nM | 1.86 nM | 238 nM
14 | YXQGTXTSDXXIXLDXKAQXEFIEXLVEGGPSSGEPPPSGE (non-natural residues; lipidated Lys; C-terminal amide; synthetic construct; SITE 2: note = 2-Aminoisobutyric Acid; SITE 6: note = alpha-methyl-2-fluoro-L-phenylalanine; SITE 10: note = 3-(4-Pyridyl)-L-alanine; SITE 11: note = alpha-methyl-L-serine; SITE 13: note = alpha-methyl-leucine; SITE 16: note = L-ornithine; SITE 17: note = Lysine is chemically mo) [Example 1161] | 0.39 nM | 35.5 nM | 0.00973 nM | 0.733 nM | 2.19 nM | 217 nM
15 | YXQGTXTSDXXIXLDXKAQXEFIEXLIEGGPSSGAPPPSGE (non-natural residues; lysine acylated with AEEA linker C18 diacid; C-amide; synthetic construct; SITE 2: note = 2-Aminoisobutyric Acid; SITE 6: note = alpha-methyl-L-phenylalanine; SITE 10: note = 3-(4-Pyridyl)-L-alanine; SITE 11: note = alpha-methyl-L-serine; SITE 13: note = alpha-methyl-leucine; SITE 16: note = L-ornithine; SITE 17: note = Lysine is chemically modified th) [Example 1164] | 0.495 nM | 63.5 nM | 0.0104 nM | 1.17 nM | 2.83 nM | 359 nM
16 | YXQGTXTSDXXIXLDXKAQXEFIEXLVEGGPSSGAPPPGGE (not fully specified; non-natural residues; AEEA-γGlu-C18 diacid on Lys; C-terminal amide; synthetic construct; SITE 2: note = 2-Aminoisobutyric Acid; SITE 6: note = alpha-methyl-2-fluoro-L-phenylalanine; SITE 10: note = 3-(4-Pyridyl)-L-alanine; SITE 11: note = alpha-methyl-L-serine; SITE 13: note = alpha-methyl-leucine; SITE 16: note = L-ornithine; SITE 17: note = Lysine is chemically mo) [Example 1154] | 0.344 nM | 44.5 nM | 0.00879 nM | 0.954 nM | 6.42 nM | 320 nM
